According to patent US20240034774A1 (Gilead, published 2024):

Experiments:
gp120 SHIV SF162 P3 = gp120 SHIV SF162 P3 (SHIV SF162 P3); assay: single-point ELISA at EC50 conc. of A-1
gp120 Bal = gp120 Bal (HIV (Bal)); assay: single-point ELISA at EC50 conc. of A-1
gp120 CAAN = gp120 CAAN (HIV (CAAN)); assay: single-point ELISA at EC50 conc. of A-1
BSA = BSA (UniProt P02769 25-607); assay: single-point ELISA, BSA control

| Binder | ELISA A450 (gp120 SHIV SF162 P3) | ELISA A450 (gp120 Bal) | ELISA A450 (gp120 CAAN) | ELISA A450 (BSA) |
| --- | --- | --- | --- | --- |
| 1.1.30-1 (antibody, human IgG1, kappa) heavy: QVQLLQSGAAVTKPGASVRVSCEASGYNIRDYFIHWWRQAPGQGLQWVGWINPKTGQPNNPRQFQGRVSLTRHASWDFDTFSFYMDLKALRSDDTAVYFCARQRSDYWDFDVWGSGTQVTVSSASTKGPSVFPLAPSSKSTSGGTAALGCLVKDYFPEPVTVSWNSGALTSGVHTFPAVLQSSGLYSLSSVVTVPSSSLGTQTYICNVNHKPSNTKVDKKVEPKSCDKTHTCPPCPAPELLAGPDVFLFPPKPKDTLMISRTPEVTCVVVDVSHEDPEVKFNWYVDGVEVHNAKTKPREEQYNSTYRVVSVLTVLHQDWLNGKEYKCKVSNKALPLPEEKTISKAKGQPREPQVYTLPPSREEMTKNQVSLTCLVKGFYPSDIAVEWESNGQPENNYKTTPPVLDSDGSFFLYSKLTVDKSRWQQGNVFSCSVLHEALHSHYTQKSLSLSPGK light: DIQMTQSPSSLSASVGDTVTITCQANGYLNWYQQRRGKAPKLLIYDGSKLERGVPSRFSGRRWGQEYNLTINNLQPEDIATYFCQVYEFVTPGTNVDIKRTVAAPSVFIFPPSDEQLKSGTASVVCLLNNFYPREAKVQWKVDNALQSGNSQESVTEQDSKDSTYSLSSTLTLSKADYEKHKVYACEVTHQGLSSPVTKSFNRGEC | 0.98 A450 | 0.9 A450 | 0.86 A450 | 0.06 A450 |
| 1.1.35-1 (antibody, human IgG1, kappa, V domains shown) VH: QVQLLQSGAAVTKPGASVRVSCEASGYNIRDYFIHWWRQAPGQGLQWVGWINPKTGQPNNPRQFQGRVSLTRHASWDFDTFSFYMDLKALRSDDTAVYFCARQRSDYWDFDVWGSGTQVTVSS VL: DIQMTQSPSSLSASVGDRVTITCQANGYLNWYQQKPGKAPKLLIYDGSNLETGVPSRFSGSRWGQEYTLTISSLQPEDIATYFCQVYEFVGPGTNLDIKR | 0.72 A450 | 0.96 A450 | 0.75 A450 | 0.08 A450 |
| 1.1.34-1 (antibody, human IgG1, kappa) heavy: QVQLLQSGAAVTKPGASVRVSCEASGYNIRDYFIHWWRQAPGQGLQWVGWINPKTGQPNNPRQFQGRVSLTRHASWDFDTFSFYMDLKALRSDDTAVYFCARQRSDYWDFDVWGSGTQVTVSSASTKGPSVFPLAPSSKSTSGGTAALGCLVKDYFPEPVTVSWNSGALTSGVHTFPAVLQSSGLYSLSSVVTVPSSSLGTQTYICNVNHKPSNTKVDKKVEPKSCDKTHTCPPCPAPELLAGPDVFLFPPKPKDTLMISRTPEVTCVVVDVSHEDPEVKFNWYVDGVEVHNAKTKPREEQYNSTYRVVSVLTVLHQDWLNGKEYKCKVSNKALPLPEEKTISKAKGQPREPQVYTLPPSREEMTKNQVSLTCLVKGFYPSDIAVEWESNGQPENNYKTTPPVLDSDGSFFLYSKLTVDKSRWQQGNVFSCSVLHEALHSHYTQKSLSLSPGK light: DIQMTQSPSSLSASVGDTVTITCQANGYLNWYQQRRGKAPKLLIYDGSNLERGVPSRFSGRRWGQEYTLTISSLQPEDIATYFCQVYEFVTPGTRLDIKRTVAAPSVFIFPPSDEQLKSGTASVVCLLNNFYPREAKVQWKVDNALQSGNSQESVTEQDSKDSTYSLSSTLTLSKADYEKHKVYACEVTHQGLSSPVTKSFNRGEC | 0.83 A450 | 0.9 A450 | 0.96 A450 | 0.06 A450 |
| 1.1.33-1 (antibody, human IgG1, kappa) heavy: QVQLLQSGAAVTKPGASVRVSCEASGYNIRDYFIHWWRQAPGQGLQWVGWINPKTGQPNNPRQFQGRVSLTRHASWDFDTFSFYMDLKALRSDDTAVYFCARQRSDYWDFDVWGSGTQVTVSSASTKGPSVFPLAPSSKSTSGGTAALGCLVKDYFPEPVTVSWNSGALTSGVHTFPAVLQSSGLYSLSSVVTVPSSSLGTQTYICNVNHKPSNTKVDKKVEPKSCDKTHTCPPCPAPELLAGPDVFLFPPKPKDTLMISRTPEVTCVVVDVSHEDPEVKFNWYVDGVEVHNAKTKPREEQYNSTYRVVSVLTVLHQDWLNGKEYKCKVSNKALPLPEEKTISKAKGQPREPQVYTLPPSREEMTKNQVSLTCLVKGFYPSDIAVEWESNGQPENNYKTTPPVLDSDGSFFLYSKLTVDKSRWQQGNVFSCSVLHEALHSHYTQKSLSLSPGK light: DIQMTQSPSSLSASVGDTVTITCQANGYLNWYQQRRGKAPKLLIYDGSNLERGVPSRFSGRRWGQEYTLTISSLQPEDIATYFCQVYEFVVPGTNLDIKRTVAAPSVFIFPPSDEQLKSGTASVVCLLNNFYPREAKVQWKVDNALQSGNSQESVTEQDSKDSTYSLSSTLTLSKADYEKHKVYACEVTHQGLSSPVTKSFNRGEC | 0.84 A450 | 0.87 A450 | 0.94 A450 | 0.07 A450 |
| 1.1.31-1 (antibody, human IgG1, kappa) heavy: QVQLLQSGAAVTKPGASVRVSCEASGYNIRDYFIHWWRQAPGQGLQWVGWINPKTGQPNNPRQFQGRVSLTRHASWDFDTFSFYMDLKALRSDDTAVYFCARQRSDYWDFDVWGSGTQVTVSSASTKGPSVFPLAPSSKSTSGGTAALGCLVKDYFPEPVTVSWNSGALTSGVHTFPAVLQSSGLYSLSSVVTVPSSSLGTQTYICNVNHKPSNTKVDKKVEPKSCDKTHTCPPCPAPELLAGPDVFLFPPKPKDTLMISRTPEVTCVVVDVSHEDPEVKFNWYVDGVEVHNAKTKPREEQYNSTYRVVSVLTVLHQDWLNGKEYKCKVSNKALPLPEEKTISKAKGQPREPQVYTLPPSREEMTKNQVSLTCLVKGFYPSDIAVEWESNGQPENNYKTTPPVLDSDGSFFLYSKLTVDKSRWQQGNVFSCSVLHEALHSHYTQKSLSLSPGK light: DIQMTQSPSSLSASVGDTVTITCQANGYLNWYQQRRGKAPKLLIYDGSKLERGVPSRFSGRRWGQEYTLTISSLQPEDIATYFCQVYEFVVPGTNLDLKRTVAAPSVFIFPPSDEQLKSGTASVVCLLNNFYPREAKVQWKVDNALQSGNSQESVTEQDSKDSTYSLSSTLTLSKADYEKHKVYACEVTHQGLSSPVTKSFNRGEC | 0.87 A450 | 0.87 A450 | 0.96 A450 | 0.06 A450 |
| 1.1.32-1 (antibody, human IgG1, kappa) heavy: QVQLLQSGAAVTKPGASVRVSCEASGYNIRDYFIHWWRQAPGQGLQWVGWINPKTGQPNNPRQFQGRVSLTRHASWDFDTFSFYMDLKALRSDDTAVYFCARQRSDYWDFDVWGSGTQVTVSSASTKGPSVFPLAPSSKSTSGGTAALGCLVKDYFPEPVTVSWNSGALTSGVHTFPAVLQSSGLYSLSSVVTVPSSSLGTQTYICNVNHKPSNTKVDKKVEPKSCDKTHTCPPCPAPELLAGPDVFLFPPKPKDTLMISRTPEVTCVVVDVSHEDPEVKFNWYVDGVEVHNAKTKPREEQYNSTYRVVSVLTVLHQDWLNGKEYKCKVSNKALPLPEEKTISKAKGQPREPQVYTLPPSREEMTKNQVSLTCLVKGFYPSDIAVEWESNGQPENNYKTTPPVLDSDGSFFLYSKLTVDKSRWQQGNVFSCSVLHEALHSHYTQKSLSLSPGK light: DIQMTQSPSSLSASVGDTVTITCQANGYLNWYQQRRGKAPKLLIYDGSKLERGVPSRFSGRRWGQEYTLTISSLQPEDIATYFCQVYEFVTPGTRLDLKRTVAAPSVFIFPPSDEQLKSGTASVVCLLNNFYPREAKVQWKVDNALQSGNSQESVTEQDSKDSTYSLSSTLTLSKADYEKHKVYACEVTHQGLSSPVTKSFNRGEC | 0.89 A450 | 0.93 A450 | 1.04 A450 | 0.06 A450 |
